The text below walks through data of article PMC3022644, “The exopolyphosphatase TbrPPX1 of Trypanosoma brucei” (BMC Microbiology, 2011).

Substrate in the series: O=P(O)(O)OP(=O)(O)OP(=O)(O)O
The experiment in a line: purified protein. The following applies: 50 mM HEPES pH 7.8, 50 μM EGTA, 1 mM MgCl2, 30°C, GST fusion. Type of series: biochemical, Trypanosoma brucei.

Usually Km stands for the substrate concentration at which the rate is half of its maximum. One may read the kcat as the number of substrate molecules converted per active site and unit of time at saturation.

B1: TbrPPX1 (Trypanosoma brucei) (protein)
chain: MTAVVNEFLKRGVRALAARQDSVLVMGNEGGDMDTVIGSIFLAMYLEKRDVFGVGSYVPVLNFEKDDLPLRQDVVKLLSRHNVSTDSIYSVKQSGNGVDFLDLHQMKLPIVLYDHNKLSPEQVYLGERIVGVVDHHEDEQLYVDQTKCLRRICKTGSACTLVAELFNEAGLEVPCPELLLAPIVVDTVNFEPSQKRVTERDILASRLLVGRDDCGDYLTGMFKELMAWKNDIHCLTVPQHLRRDYKNFEFPFISAENKILRVGISSISCRSDELLSVHGVSSVSSNCIEFIKQRSIDMLLLTFAGERTPGSYCRQLGVVAKDEGLAALQAYCKKSPSGLDFTLLEDVTVNEWAFSIYELSDPSVSRKKLVPSLTSFLSVWNNL
For the protein B1, the Km amounted to 27.2 ± 4.2 µM and the catalytic constant (kcat) worked out at 8.1 ± 1.5 s⁻¹.
